Test results: the domain aggregation screens of Martell et al. (2025)

Experiment: soluble fraction after stress (log2 fold change); higher = more stays soluble; pooled small domains, quantitative proteomics
Details: stress: 50 degC
Outline: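 Each library was heated to 50°C as a stress step. The libraries, made up of small protein domains, were pooled and analysed at high throughput by quantitative proteomics. The reported value is the base-two logarithm of the fold change in each protein's soluble amount after stress, taken as a measure of aggregation propensity. The higher the value, the more protein stays in solution.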

| Sequence | soluble fraction (log2) |
| --- | --- |
| HMQEGPGLVPDFRGQTMREVLRGGQSLGVRVAVDGTGLAVAQTPEPGSPLNKVSQVTVSFRPP | 0.0873 |
| HMIADDLKSLEGVDQDMLRDLAEAGINTRDDLAELAIDELIEITGVSTEEAEKVIMAARAHWFEEES | 0.463 |
| HMGVAASEVHREKKESSLQWRQSYNVATDQRRQGKTYKEITEFLNGAELKNSKGGTWSISGVRKMLM | 0.271 |
| HMTIRLKELRKQKGNTQAEVAKILGTNQSQYGKYENERTQLSLDNAKILSDYFGVSVPYLLGLDDNP | -0.0854 |
| HMKLPNGYGGIAKLSGKRRNPWRVRVTKGWSVDEQTGKAKQLFSTLGYYPTRKDALAALSAYNQNP | -0.942 |
| HMEKIDEDIMDVLKKKAEVSGISLGVLKSIYEKAVKQYKLGHEIGQVKEQYAMQKVNTHLLENK | 0.194 |
| HMDNQYGVYSDEKNNVEIHWKRIDHPSVAKDHLDIEAYQNGKRVDINNQQADHYRYLINQEMNE | 0.0952 |
| HMIDSEEVMETIQDLGYSPVFDVKEKFYKIKEEQIGKITLEVHIILRYGMVDLVWIVRENGELLLG | 0.138 |
| HMKHKYWEIKERIKKDILNEVYKKGESIPSERDLAGIYDVTRVTVQKAMAMLVQEGYIERIHGKGMFVLKN | -0.801 |
| HMTGSLLVEVQGRPDADRLLGQALVDAGLTARPAGGALIEVEVRDETTPDVVRDLTVDLGLGLVRMQERH | -0.702 |
| HMGQDTTIVVRRGESLLGIAARLLPATDFYTTGELAEGIRTASGMENDRLIPGQTLRVPLNSG | -0.0889 |
| HMGEPLTVVAAAGGDRLDRWLAGQLAGRSRAEIQRWIEAGQVTLAGRSLKASYRLSAGDAIDVAIPPPE | -0.129 |
| HMDVPVEVFMERIVTALREGRKTTFSELMEGKPERGKVIGTFLALLQLSKGQQIQIHQEQRTGEISIEGGA | -0.315 |
| HMDRKARRKYIEQVVNDRKIETQEELLKLLTEAGFETTQATISRDIHALNIVKANDGDGHTHYVQLH | 0.144 |
| HMERFLENAIPVLGETGLDIKSATEDFENALIRQALHLSGGNKNRAATLLGLKRTTFVEMLKRKSL | -0.806 |
| HMDRPEPLYIVNGKEVQTLEEAFELGRTLGSAKKGTQVRLRRLLPEEGVEKYGEKGRNGVFEFMVSA | 0.217 |
| HMYHKKEKAQAANIEERIMILLSDGKHHHITEIKAIYVDEVITLNILEEMLAEEKVIIEGDMIMLVE | -3 |
| HMVLTGTIKKYNNERGFGFISTSNFGDVFFHIKDFQKGEQPIPGREVYFEVVKKENKKRAIHVYYSD | -1.02 |
| HMGTSQSAVKAILAQLISDENKQKPYSDEALSRLLQQQGIDIARRTVAKYREALNIPPAHQRK | 0.101 |
| HMTTAASIGRLVRDARKQRGLTQHELASLLSTSQSAIHRIESGNQNLSLEMINRIAQALESPLIVPGG | -0.163 |
| HMSIMNEQIREILNQQVTKTSKIQQLLLLGLTRRQVADLVTNGNYGFVQNVYRNMLDAGIFTP | -0.5 |
| HMEDYYKEDYYTEVLKIPKEYIKGFQYYLIEDAEFVNALNAKNKTMTSFLAKKLASDYIEIIHQEQ | -1.46 |
| HMIMNKEIPVVADEFVEKEFGTGAVKLTPAHDPNDYESGERHGLEVVEVFDETGKMNDLVPEYEG | 0.551 |

| Sequence | soluble fraction (log2) |
| --- | --- |
| HMDFGPDSAAPLADGSAPEGFDVKGNADSMLYHEPDGRWYDATVAEVWFRTAEAAQAAGFTKAGS | -0.0829 |
| HMEISEILNPPLVTAMAERYPEVDVSYYRDKYILYYESREHKITDHRRNFEKWLLVESQKEEN | -1.07 |
| HMEWNPEKQHLLENYITNYSRQLNDTGLFYKNLDWNYIFNLVGVDDQEFLMLKIDEIYDESINVY | -0.521 |
| HMSTVELPVQINGKVRGRITVPANAGQEDVKQAALADSKVQRYIEGASIRKVIVVPRKLVNIVV | 0.13 |
| HMRTIVSELNDIKGISDASAKKLLIRYGSFEAVREAVMKHEEEFELDMGKRITGALTRYFYEE | -1.61 |
| HMPLKLIDVYLGRHGKKRYDVFKETGLSQQTLASANGKPAAALTGRILQAIGRTVGETPGRVLDEMLMIEQ | -0.691 |
| HMPTANFPAMAEALKKQYGPPTGEEETSWTHRLGGVFDIKIQSWNTPQGEMVLRSRGAAMDAGML | 0.439 |
| HMLGIGANVQKIAQERKISLKELSRRAGIPYTTIYNMVKRDSSRVSPENLQKLADALGVEIGKLYG | 0.0652 |
| HMDAMMQRLERLKELASSADGSKDYLILGPLRRDLAKLMALEDPKLRQGAEELDRKILAILS | -0.208 |
| HMALALSGVDLNRNRLTISWQTSKGVSYRVQRSSDLQSWTDVGAERLGNGNRLSHTQALNTESAFLRVII | -0.0897 |
| HMTATWLTYYRIKAGLTQKRLAELAGLNIRQVQKIENGETLAGNTTAKNLLALADALGIDPHKL | -2.05 |
| HMDRERFIKLGREIARAAFENVGKKATDKVLNSAAKKLRLEDGDEVLARLGSAEIEARSVVQAVYPDLI | 0.452 |
| HMTRRGPLTEGDRVQVRDPKGRFHQVILVRGGRFQSNRGGFNHDDVIGRPDGQVIITDEGRQFQIL | 0.512 |
| HMEATILTATPEAAGQRLDAFLAETLPELTRSAAQRLIAEGQVAVDGKIPTKSLKLAGGETVSVRLPEPE | 0.275 |
| HMERLSVSMGDMVVFVRDAVEAFRGLVKEKGITLTFESKVEHFYMNYDHDKVYKVVNNLLSNAVKFT | -0.209 |
| HMGGSDIYLGAFNIPQGSVRVTSGGQALTEGKDFTIDYNLGSVKIINQAILNSGIPVSVSYENNAG | 0.123 |
| HMNALTEAESKLLERMNKAGIHAEITTKKAAGILQRSENGARTVLNSLVKKGYLTVETNKAPYIYHLH | -0.11 |
| HMQVQHVWNRLKRPNGDVLYEINRDHPLVSASLDAAADRGAIETLLRQIEQSLPVNQLYVDMNADEHFE | -0.301 |
| HMVSKSDVQRALEKVEPVLRKLGGSTVEKVRVMARQATLVFEMLKSWWKGEIDLPWKTVAAMTVTLLYL | -0.266 |
| HMFNDPTMEDALVNLKGITNEVLSYLSSSKIKKLEELAEMSVPELKDIVENISDDEASALIMEARKPWF | -0.113 |
| HMRGQLADLWLPREQARRAAEIVAARPVPLGSVKTWIARGKLAPRKTGTGPALYRVGALVSLLAKS | -1.67 |
| HMDEWDDGDKPKLKITLYADDDYYFASGFSKSSVSLSGSDGTVTSVSRSSSDTLIVYVTLDALD | -0.0264 |
| HMATVPNVVGLSEEKAKSRLANNGLNVSVTTEEVSDKSKDGIVSSQTSEGDTVKQGATITITVGKYVEK | 0.14 |

| Sequence | soluble fraction (log2) |
| --- | --- |
| HMTDITSAITRLNKYNKSGTPLTIDSVTPEALQTLQAKVSSAFEIGAVNQQTYDDVTKDIATLQQYLSSA | 0.15 |
| HMGLQEADKQDRIARMKELISFLNEAAKAYYQEGREIVSNLEYDKAYDALLSLEKESGVVLSGSPSQNVG | 0.147 |
| HMGGKWKLRILWHIHHGDTRFSTLKRGIPEISEKILAQQLRELEEHQLIKRRVVTVMPPHVVYEL | -2.28 |
| HMNIQGIFGRNLKQKRLEKGMTQEQLAEKAGVSTDTVKRYESGKYDGIRLDMAWYMANALDTPLQALLPP | 0.367 |
| HMHLLPAREQVAAYLRKAILRQEIREGTILNLADTARQMGVSVTPVREALQLLAAQGLVRLRPNKGAVVMG | -0.891 |
| HMNTLPTDELMKYGIINEDLSFSKKLNADDIQKFLQGYTIVADNDKNRATFQLTENNTKLKVIFLER | -0.438 |
| HMPSKKHARWIELEARKFMADNEDAVSDLHELRTRAANFAALKTSTLPVDQHRAIVAGFVARVNELGRRI | -0.631 |
| HMGLGDLEVVDSIGKIRRDGQQMILAFGRHKGRDVQEVYNEDPRYINWLLSPKGIEDENGRGKVRDYLGIN | 0.163 |
| HMFSWRQHLDHFGFSDEIKKRLADAVFLNDDWNEIDRGVLTKEELLARFIENDPGIEKEIYMVMENIN | -0.509 |
| HMKVQLGMNTREVRGIMGKPFSEDTFVEGEKRVDVLHYKEAVRVKTQGFILTTSLRFENDSLTAI | -1.74 |
| HMAEVTLTVREQEVLHLLARGMSNGEMAAHLYVEPTTIKYHLTGLLQKTGSRDRLQAVLWGIRAGMVH | -2.18 |
| HMAQTEIPYSEFLREVGNGQIKSVIIEGSEITGFYKTSGTSFNVVAPDDPKLVERLMDQGVEVRAQPT | 0.0919 |
| HMSILSIGLERGMKKGVAWGIAKSILDILEETGPVSEKTREMIVTETDAERLSAWVKKAARSNSEEDFLSK | -0.631 |
| HMTMVLPDAARDKLKAIGLSIEHVEPSPVKDIFTVISREGVSYVSKDGDYIFTGSLFHVKGKDVVNTTEQA | 0.128 |
| HMADEDTILALAKEILASWPDKVEAYKNGNKGMLGLFMGELMKKSGGKANPKSASALIQKLLE | -0.0387 |
| HMFYQLTENQRRILSSLEQNPRVSAAHLAEEIGISSRKVENNLKKLKEIGLLQRHGSPRKGYWSINQGW | -0.623 |
| HMNLVRQHTDYAFRLLVALSQAPGKPISTRTLASAADVPYQFASKIMQKLHEEGLVESVMGPFGGFRLVQ | -2.52 |
| HMVMLIVMNHTASQADIDKVIEVVSGMGFTAAPIPGGERTAIGVLGNKGYVDDSTIRDLPGVQQAIHVSKP | 0.0615 |
| HMTPVKAPLPGVVTKINVSVGQQVKKGENVLVLEAMKMENNIAAEADGTVSGIAVKAGDSVLEGAVLLTI | 0.184 |
| HMNTDIHRLLDEAFVRVDMTPDAQHLKEEIRANLVARVDELEASGVPSADAARRAIAELGDVRELL | 0.17 |
| HMRYPLPYAFARSQQLLLEETDDGRYTLWMSSHPARSAVGEVSRKYGVQTFEVLADGPLAQRISAAYAQ | -1.37 |
| HMTVSADQTAADAVIKLINAIGTVSENSGSAISAARSGYDALTDTQKKLVTNYNKLTQAEQVFSSLPS | 0.203 |
| HMEYKYNPADYPYPLNEDIEKVYSAYREKSIGKLEAAVQNLYYTLKQARRDNILSDVKVNEMQQYFLALRN | -0.324 |
